According to paper doi:10.1101/560391 (bioRxiv, 2019):
Each block holds one molecule with its values, some of them ahead of it.

Tests used:
[1] = target: dCENP-A^C chimera, GFP-LacI fusion (Drosophila) (UniProt Q9V6Q2); test: LacI/LacO tethering and co-recruitment in cells
[2] = target: (dCENP-A/dH4) dimer (Drosophila), Q9V6Q2; test: SEC-MALS; conditions: remark: other sources report otherwise
SEC-MALS = target: the molecule itself; test: SEC-MALS

- CAL1 recruitment relative to WT dCENP-A [1]: 60%
Molecule: CAL1-V5 (from UniProt Q9VEN2 1-979) (natural protein)

- stoichiometry N [2]: 1
B1: recombinant CAL1(1-160), Q9VEN2 1-160 (domain or fragment)
chain: MANAVVDEETLEAMVYERSKAWSSKMADFASLEDGMEIDVAEFDNLFHGEDEDPDLDDVAKEAVEDNVPDEAKLEMGHINATSVTELTLILCANEDNEAKAEIEEILNQTVPVVEEHKRKWREAGLDRILDTFDEKQIEHHVGRWMRRHNSVYLEASPPK

B2: His-dCENP-C(1264-1411) (domain or fragment)
chain: GPVVFSTPLRDEQEEASTKLMQWLRGVGDAPPSASMSDENASVSSANELIFCQVDGIDYAFYNTKEKAMLGYMRFKPYQKRSMKQAKVHPLKLLVQFGEFNVETLAVGEEKEVHSVLRVGDMIEIDRGTRYSIQNAIDKVSVLMCIRS
- stoichiometry N (SEC-MALS): 2
